Test results from patent US20260070986A1 (AFFIMED, published 2026).

Assays:
[1] = target: T1, CD123 on CD123+ cells (EOL-1 and other CD123+ tumour or patient cells) (human, UniProt P26951 19-378); assay: flow cytometry on CD123+ EOL-1 cells, anti-human IgG-APC detection
T1 construct: whole, on cells; also called interleukin-3 receptor
Method: To analyze binding of CD123xCD16A antibody constructs to CD123+ EOL-1 cells, CD123− A-431 cells and CD123− Karpas-299 cells by flow cytometry, 1×10⁵ cells were resuspended in 100 μL FACS buffer in round-bottom 96-well microtiter plates. After washing in FACS buffer, cells were incubated in 100 μL FACS buffer without antibodies or with titrated antibodies starting at a concentration of 100 μg/mL followed by eight 10-fold serial dilutions for 45 min on ice in the dark. After washing twice, cells were incubated with APC-conjugated goat anti-human IgG (H+L)-APC (1/200 dilution) for 30 min on ice in the dark. After washing, binding was measured by flow cytometry and mean fluorescence intensities (MFI) of cell samples were calculated and corrected for background staining using control cells stained with secondary antibodies only.

[2] = target: T2, recombinant cynomolgus CD16, biotinylated mFc.silenced/Avi-tagged (cynomolgus, UniProt Q8SPW2 17-208, biotinylated (Avi-tag)); assay: SPR (Biacore), 37 °C, multi-cycle kinetics, biotin-captured antigen as ligand, antibody construct as analyte, 1:1 binding model
T2 construct: not shown: silenced mouse Fc (mFc.silenced) and Avi-tag
T2 sequence (Q8SPW2 17-208): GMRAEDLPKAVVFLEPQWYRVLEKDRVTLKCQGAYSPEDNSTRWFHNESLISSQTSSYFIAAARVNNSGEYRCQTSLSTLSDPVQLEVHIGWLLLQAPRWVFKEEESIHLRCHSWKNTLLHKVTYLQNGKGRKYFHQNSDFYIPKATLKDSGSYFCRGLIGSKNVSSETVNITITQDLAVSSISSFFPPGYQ
Method: (§1) After each cycle, chip surfaces were regenerated with 6M guanidine-HCl, 0.25M NaOH and reloaded with Biotin Capture reagent. Interaction kinetics were determined by fitting data from multi-cycle kinetics experiments to a simple 1:1 interaction model using the local data analysis option (Rmax and RI) available within Biacore T200 Evaluation Software (v3.1). Referencing was done against a flow cell without captured ligand (Fc2-Fc1, Fc4-Fc3).
(§2) Affinity and kinetic parameters were evaluated for interaction with human CD16A and cynomolgus CD16 using a 1:1 Binding model.

[3] = target: T3, recombinant human CD16A 158F, biotinylated mFc.silenced/Avi-tagged (human, UniProt P08637 17-208, biotinylated (Avi-tag)); assay: as above
T3 construct: not shown: silenced mouse Fc (mFc.silenced) and Avi-tag
T3 sequence (P08637 17-208): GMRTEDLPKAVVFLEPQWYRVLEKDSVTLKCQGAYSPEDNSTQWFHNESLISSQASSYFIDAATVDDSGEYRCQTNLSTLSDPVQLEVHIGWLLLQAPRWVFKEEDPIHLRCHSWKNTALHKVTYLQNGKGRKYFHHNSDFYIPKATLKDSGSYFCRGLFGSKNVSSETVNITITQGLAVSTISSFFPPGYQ
Method: as §1, §2

[4] = target: T4, recombinant human CD16A 158V, biotinylated mFc.silenced/Avi-tagged (human, UniProt P08637 17-208, biotinylated (Avi-tag)); assay: as above
T4 construct: not shown: silenced mouse Fc (mFc.silenced) and Avi-tag
T4 sequence (P08637 17-208 F176V limits assumed): as the sequence (P08637 17-208) above, with F160V counted along it
Method: as §1, §2

T1 sequence (P26951 19-378): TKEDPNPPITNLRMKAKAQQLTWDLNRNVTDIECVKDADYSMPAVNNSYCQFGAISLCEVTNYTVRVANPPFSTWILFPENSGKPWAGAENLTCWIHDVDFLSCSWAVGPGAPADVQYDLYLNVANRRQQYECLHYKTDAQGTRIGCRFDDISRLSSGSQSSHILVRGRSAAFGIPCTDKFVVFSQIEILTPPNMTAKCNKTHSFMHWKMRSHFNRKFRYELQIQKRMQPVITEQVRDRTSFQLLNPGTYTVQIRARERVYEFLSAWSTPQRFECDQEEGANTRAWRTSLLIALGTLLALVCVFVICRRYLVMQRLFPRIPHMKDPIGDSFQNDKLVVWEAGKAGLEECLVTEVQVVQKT

| EC50 (read off the curve) [1] [nM] | Kd [2] [nM] | koff [2] [s⁻¹] | kon [2] [M⁻¹ s⁻¹] | Kd [3] [nM] | koff [3] [s⁻¹] | kon [3] [M⁻¹ s⁻¹] | Kd [4] [nM] | koff [4] [s⁻¹] | kon [4] [M⁻¹ s⁻¹] | Binder |
| --- | --- | --- | --- | --- | --- | --- | --- | --- | --- | --- |
| ~0.4 |  |  |  |  |  |  |  |  |  | scFv-IgAb_265 (CD123-1xCD16a2) (bispecific antibody) chain 1: QVQLQQSGAEVKKPGASVKVSCKASGYTFTDYYMKWVKQSHGKSLEWMGDIIPSNGATFYNQKFKGKATLTVDRSTSTAYMELSSLRSEDTAVYYCARSHLLRASWFAYWGQGTLVTVSSASTKGPSVFPLAPSSKSTSGGTAALGCLVKDYFPEPVTVSWNSGALTSGVHTFPAVLQSSGLYSLSSVVTVPSSSLGTQTYICNVNHKPSNTKVDKKVEPKSCDKTHTCPPCPAPEFEGGPSVFLFPPKPKDTLMISRTPEVTCVVVAVSHEDPEVKFNWYVDGVEVHNAKTKPREEQYNSTYRVVSVLTVLHQDWLNGKEYKCKVSNKALPAPIEKTISKAKGQPREPQVYTLPPSREEMTKNQVSLTCLVKGFYPSDIAVEWESNGQPENNYKTTPPVLDSDGSFFLYSKLTVDKSRWQQGNVFSCSVMHEALHNHYTQKSLSLSPGGGGGSGGGGSGGGGSGGGGSGGGGSGGGGSSYELTQPLSVSVALGQTARITCGGHNIGSKNVHWYQQKPGQAPVLVIYQDNKRPSGIPERFSGSNSGNTATLTISRAQAGDEADYYCQVWDNYNVLFGCGTKLTVLGGSGGSGGSGGSGGSGGSGGSQVQLVQSGAEVKKPGASVKVSCKASGYTFTSYYMHWVRQAPGQCLEWMGAIEPRYGSTSYAQKFQGRVTMTRDTSTSTVYMELSSLRSEDTAVYYCARGSAYYYDFADYWGQGTLVTVSS chain 2: not shown |
| ~0.4 | 2.4 | 0.013 | 5.2e+06 | 0.567 | 0.0036 | 6.4e+06 | 0.43 | 0.0027 | 6.3e+06 | scFv-IgAb_264 (CD123-2xCD16a2) (bispecific antibody, also called CD123xCD16A ICE) chain 1: QVQLVQSGAEVKKPGASVKMSCKASGYTFTDYYMKWVKQAPGQGLEWIGDIIPSNGATFYNQKFKGKATLTVDRSISTAYMHLNRLRSDDTAVYYCTRSHLLRASWFAYWGQGTLVTVSSASTKGPSVFPLAPSSKSTSGGTAALGCLVKDYFPEPVTVSWNSGALTSGVHTFPAVLQSSGLYSLSSVVTVPSSSLGTQTYICNVNHKPSNTKVDKKVEPKSCDKTHTCPPCPAPEFEGGPSVFLFPPKPKDTLMISRTPEVTCVVVAVSHEDPEVKFNWYVDGVEVHNAKTKPREEQYNSTYRVVSVLTVLHQDWLNGKEYKCKVSNKALPAPIEKTISKAKGQPREPQVYTLPPSREEMTKNQVSLTCLVKGFYPSDIAVEWESNGQPENNYKTTPPVLDSDGSFFLYSKLTVDKSRWQQGNVFSCSVMHEALHNHYTQKSLSLSPGGGGGSGGGGSGGGGSGGGGSGGGGSGGGGSSYELTQPLSVSVALGQTARITCGGHNIGSKNVHWYQQKPGQAPVLVIYQDNKRPSGIPERFSGSNSGNTATLTISRAQAGDEADYYCQVWDNYNVLFGCGTKLTVLGGSGGSGGSGGSGGSGGSGGSQVQLVQSGAEVKKPGASVKVSCKASGYTFTSYYMHWVRQAPGQCLEWMGAIEPRYGSTSYAQKFQGRVTMTRDTSTSTVYMELSSLRSEDTAVYYCARGSAYYYDFADYWGQGTLVTVSS chain 2: not shown |
